Key:
[1] = tested on: a variety of human tumor cell lines; settings: background statement; cited from earlier work
[2] = biological target: human c-Met on MKN45 cells (human) (UniProt P08581); assay: cell-based or functional assay
human c-Met-His = biological target: T1, human c-Met-His (Homo sapiens, UniProt P08581); assay: ELISA binding of c-Met antibody to c-Met antigen; settings: hybridoma clones, ELISA, OD450
T1 construct: His tag (6xHis) (C); made in house; host or cells: 293F cells (Invitrogen, Cat # R790-07); vector pEE6.4; c-Met gene template origene RC217003
Procedure: This experiment uses enzyme linked immunosorbent assay to detect affinity of c-Met antibody (including supermatant of hybridonma or recombinant expressed monoclonal antibodies) to c-Met antigen in vitro.
Experimental procedures: Coating buffer (PBS; Hyclone, Cat No.: SH30256.01B) was used to dilute antigen (human c-Met-His, example 1) to 2 μg/mL, which was added to a 96-well microplate at 100 μL/well (Costar 9018, Cat No.:03113024) and incubated overnight at 4° C. […] The plate was read with plate reader at 450 nm.
Murine anti-human c-Met monoclonal cell lines were obtained by immunizing mice, fusion of spleen cells, and screening of hybridomas. […] After the first booster immunization, mice serum was collected during 7 to 10 days after each booster immunization, and the titer was detected by ELISA (Methods were described in Example 2).
After immunization, mice with a serum titer higher than 1:10^5 were selected for cell fusion. Mouse B-cells and myeloma cells (SP2/0, ATCC number:CRL-1581™) were prepared respectively in aseptic conditions and counted. […] The next day, positive clones were detected by ELISA (see Methods in Example 2).

[3] = biological target: T2, human c-Met ECD his tag (Human c-Met ECD-His) recombinant protein (human, UniProt P08581 25-932); assay: ELISA, plate coated with human c-Met-His at 2 ug/mL
T2 construct: extracellular domain; It was expressed in 293F cells; Natural c-Met is cleaved into alpha and beta subunits; also called human c-Met-His; not shown: C-terminal His tag
T2 sequence (P08581 25-932): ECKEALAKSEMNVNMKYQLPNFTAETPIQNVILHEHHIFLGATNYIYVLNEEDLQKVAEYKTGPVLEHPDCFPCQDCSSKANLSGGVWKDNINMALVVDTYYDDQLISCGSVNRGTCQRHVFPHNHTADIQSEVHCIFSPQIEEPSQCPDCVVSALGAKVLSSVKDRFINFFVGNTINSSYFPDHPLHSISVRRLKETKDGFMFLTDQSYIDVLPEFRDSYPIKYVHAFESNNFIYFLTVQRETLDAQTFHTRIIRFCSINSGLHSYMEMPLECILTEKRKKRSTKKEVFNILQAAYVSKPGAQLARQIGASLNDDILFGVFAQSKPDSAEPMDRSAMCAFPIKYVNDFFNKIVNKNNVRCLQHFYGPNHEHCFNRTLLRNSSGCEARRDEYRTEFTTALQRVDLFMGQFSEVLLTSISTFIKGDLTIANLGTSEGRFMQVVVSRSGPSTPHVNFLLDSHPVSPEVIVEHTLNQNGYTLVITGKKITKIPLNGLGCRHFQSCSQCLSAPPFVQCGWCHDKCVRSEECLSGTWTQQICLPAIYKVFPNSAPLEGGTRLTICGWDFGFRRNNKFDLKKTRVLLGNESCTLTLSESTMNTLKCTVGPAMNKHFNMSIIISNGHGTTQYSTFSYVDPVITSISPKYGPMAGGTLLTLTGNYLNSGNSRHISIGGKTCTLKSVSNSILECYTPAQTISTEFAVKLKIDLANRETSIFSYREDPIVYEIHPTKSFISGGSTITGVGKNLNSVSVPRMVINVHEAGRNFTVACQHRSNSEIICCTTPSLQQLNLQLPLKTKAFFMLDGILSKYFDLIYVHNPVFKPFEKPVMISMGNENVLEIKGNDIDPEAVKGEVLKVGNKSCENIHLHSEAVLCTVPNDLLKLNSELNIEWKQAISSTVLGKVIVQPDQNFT

Chain of human c-Met on MKN45 cells (human) (P08581 25-1390): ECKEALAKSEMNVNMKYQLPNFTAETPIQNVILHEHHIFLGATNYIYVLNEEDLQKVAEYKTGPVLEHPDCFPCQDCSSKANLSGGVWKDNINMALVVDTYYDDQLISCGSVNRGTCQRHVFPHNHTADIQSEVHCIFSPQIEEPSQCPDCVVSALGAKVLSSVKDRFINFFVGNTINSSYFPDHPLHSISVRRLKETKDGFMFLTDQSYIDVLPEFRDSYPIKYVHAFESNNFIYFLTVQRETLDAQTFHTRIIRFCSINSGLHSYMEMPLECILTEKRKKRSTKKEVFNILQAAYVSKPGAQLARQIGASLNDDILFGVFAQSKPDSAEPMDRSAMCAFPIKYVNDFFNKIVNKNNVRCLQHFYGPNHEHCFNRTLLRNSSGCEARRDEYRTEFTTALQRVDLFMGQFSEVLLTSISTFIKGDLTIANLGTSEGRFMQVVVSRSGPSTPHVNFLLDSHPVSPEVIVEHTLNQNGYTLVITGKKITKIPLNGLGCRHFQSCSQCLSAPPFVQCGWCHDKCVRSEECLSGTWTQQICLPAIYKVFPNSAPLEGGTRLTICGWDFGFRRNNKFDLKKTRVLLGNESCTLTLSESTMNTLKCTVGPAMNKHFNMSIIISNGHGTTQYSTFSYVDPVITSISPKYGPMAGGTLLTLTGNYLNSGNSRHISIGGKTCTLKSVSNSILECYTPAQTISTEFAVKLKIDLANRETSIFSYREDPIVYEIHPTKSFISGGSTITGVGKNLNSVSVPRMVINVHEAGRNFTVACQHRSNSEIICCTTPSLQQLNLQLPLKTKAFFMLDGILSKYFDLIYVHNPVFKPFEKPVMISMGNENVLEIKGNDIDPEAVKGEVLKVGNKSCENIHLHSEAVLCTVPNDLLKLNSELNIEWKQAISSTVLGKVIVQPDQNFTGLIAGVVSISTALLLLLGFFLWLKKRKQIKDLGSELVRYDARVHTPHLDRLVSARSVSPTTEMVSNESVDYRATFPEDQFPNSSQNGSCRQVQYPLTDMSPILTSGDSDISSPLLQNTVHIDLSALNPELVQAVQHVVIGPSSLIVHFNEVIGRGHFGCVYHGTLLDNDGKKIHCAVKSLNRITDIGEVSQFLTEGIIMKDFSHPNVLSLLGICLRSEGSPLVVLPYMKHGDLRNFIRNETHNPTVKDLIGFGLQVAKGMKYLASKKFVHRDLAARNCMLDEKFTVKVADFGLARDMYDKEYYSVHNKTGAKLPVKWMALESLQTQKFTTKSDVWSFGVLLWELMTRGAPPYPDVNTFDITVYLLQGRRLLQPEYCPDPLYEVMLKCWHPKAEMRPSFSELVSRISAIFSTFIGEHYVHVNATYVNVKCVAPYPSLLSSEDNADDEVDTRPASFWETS
T1 sequence (P08581 with tags, fused parts or gaps limits assumed): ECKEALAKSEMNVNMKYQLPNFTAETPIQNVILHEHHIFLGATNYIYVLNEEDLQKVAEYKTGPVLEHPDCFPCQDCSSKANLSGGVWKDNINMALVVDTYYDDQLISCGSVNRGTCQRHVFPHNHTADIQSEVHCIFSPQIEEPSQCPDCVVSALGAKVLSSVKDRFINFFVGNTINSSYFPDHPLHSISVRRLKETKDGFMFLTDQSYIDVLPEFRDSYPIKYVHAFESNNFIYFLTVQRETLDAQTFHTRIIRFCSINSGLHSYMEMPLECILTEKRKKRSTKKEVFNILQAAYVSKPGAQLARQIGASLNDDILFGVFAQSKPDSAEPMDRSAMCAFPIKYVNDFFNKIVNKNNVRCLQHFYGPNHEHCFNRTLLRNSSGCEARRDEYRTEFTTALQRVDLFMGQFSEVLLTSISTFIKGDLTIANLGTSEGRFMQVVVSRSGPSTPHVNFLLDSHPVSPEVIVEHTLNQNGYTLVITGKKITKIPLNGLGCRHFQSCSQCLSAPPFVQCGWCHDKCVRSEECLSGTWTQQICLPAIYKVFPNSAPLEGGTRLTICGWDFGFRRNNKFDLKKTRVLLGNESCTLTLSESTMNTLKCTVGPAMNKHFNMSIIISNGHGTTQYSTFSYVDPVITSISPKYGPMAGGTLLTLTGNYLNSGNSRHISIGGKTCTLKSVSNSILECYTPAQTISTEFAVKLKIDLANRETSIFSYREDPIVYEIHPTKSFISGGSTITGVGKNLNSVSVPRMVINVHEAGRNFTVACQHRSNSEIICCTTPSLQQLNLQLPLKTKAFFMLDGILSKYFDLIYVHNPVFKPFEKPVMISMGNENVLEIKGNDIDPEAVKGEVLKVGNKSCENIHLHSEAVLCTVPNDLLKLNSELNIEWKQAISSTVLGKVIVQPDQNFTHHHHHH

In the case of `CC[C@H](C)C([C@@H](CC(=O)N1CCC[C@H]1[C@H](OC)[C@@H](C)C(=O)N[C@H](C)[C@@H](O)c1ccccc1)OC)N(C)C(=O)[C@@H](NC(=O)[C@@H](NC)C(C)C)C(C)C` (some centres unmarked) [MMAE, Monomethyl auristatin E], the “inhibitory activities against a variety of human tumor cell lines” value [1] is given as “less than one nanomolar”.

Molecule hIgG (control) (antibody) has an endocytosis % (0 h) [2] of 0%, an endocytosis % (0.5 h) [2] of -0.9% and an endocytosis % (1 h) [2] of -4.4%. The endocytosis % (2 h) [2] was -4.9% and the endocytosis % (4 h) [2] was 3.6%.

B1: Ab-5 (antibody, V domains shown)
VH: QVQLKQSGPGLVQPSQSLSITCTVSGFSLPNYGVHWVRQSPGKGLEWLGVIWSGGSTNYAAAFVSRLRISKDNSKSQVFFEMNSLQADDTAVYYCARNHDNPYNYAMDYWGQGTTVTVSS
VL: DIVLTQSPGSLAVYLGQRATISCRANKSVSTSTYNYLHWYQQKPGQPPKLLIYLASNLASGVPARFSGSGSGTDFTLNIHPLEEEDAATYYCQHSRDLPPTFGAGTKLELKR
In the case of B1, the “Detection Results (OD450)” value (human c-Met-His) is reported as 1.64.

B2: Ab-11 humanized antibody (antibody, human IgG2, kappa, V domains shown)
VH: QVQLVESGGGVVQPGRSLRLSCAASGFTLPNYGVHWVRQAPGKGLEWLAVIWSGGSTNYAAAFVSRLTISKDNSKNTVYLQMNSLRAEDTAVYYCARNHDNPYNYAMDYWGQGTTVTVSS
VL: DIVLTQSPDSLAVSLGERATINCRANKSVSTSTYNYLHWYQQKPGQPPKLLIYLASNLASGVPDRFSGSGSGTDFTLTISSLQAEDVAVYYCQHSRDLPPTFGQGTKLEIKR
notes: Full-length humanized antibody
B2 showed an EC50 [3] of 0.2 nM.
